Our source for the protein production values is a protein production outcome set (Wang et al. 2014).

This series is described as follows: label from the status in PepcDB records.

For the sequence “MGKKQKMKKAAQMATAAEKLKTAAEKSKTAADNVVAKEKPAEEASPSPSGSGKKGKPKATQKPNVAKALQKEISSSEDALDVKNKPPAGFSGAKGKPHIMGQMDPAYRNKIKKLMSLAKQLPPNVFSLPNSQKEEGASAAKSCVVEDDQSTDSDDAPDLVEADPKETQPDEQGQLGTVAVRTREVSKQSRGERKARRILMKLDLKPMENVARVTMKKGKNILLYIDQPDVYRVAHSSTYIFFGEICVEDTSTTSVASQAAVKAAERFRGTSPAGRQGNEDGKAPGEESPHDDDDDENDGEDADAMGLHAKDIELVQMQAACSRKKAIQALLKNDNDVVNAIMALTVG”, the protein production result was “failed”.

Consider “MGKLLFVDIGGTLLDYSNEVPRSAVDAIRKARAKGHRVYLSSGRSSAEVTSQLWDIGVDGLIGANGGYVESAQESVFHRRLSGEETRHIVEWLYNRGLEFYLESNNGLYASRGFREASKPVLSRLSEKTDVTVDSMYPDMFWGASLDRDDVNKISYIFNSQEDLDAAREAFPNLEHTTWGGQTGALFGTIGVSVNKKIGVDRLLKYLNADRANTIAFGDSDEDLSLFEASAYGVAMGEATESLKAAADLVTDAVGQDGLRNAFLKLELIDA”, for which the protein production result is listed as “failed”.

For “MGKQESEKTVTGSDGSGRYERKALIDKLYETQELSREEWIRLIEGRTPELSEYLFEKARAVREREYGKAVYIRGLIECSNYCRNNCYYCGIRRGNQNAQRYRLTADEILSCCENGYSLGFRTFVLQGGEDPAMTDGWVADVIRRIKKEFPDCAVTLSLGEKSEAAYQCLFDAGADRYLLRHETADADHYGKLHPDGLSLAHRMECLRTLKRIGFQTGCGFMVGSPGQTPECLAKDMAFIRELNPQMVGIGPFIPQHDTPFRDERAGAFEETLWLLGLIRLMLPRVLLPATTALGTIHPKGRELGMLAGANVVMPNLSPLGVRKKYLLYDNKICTGDEAAESLNSLKESMKAIGYEVAVGRGDYRL”, the protein production entry is “failed”.

With “MGKRLYAVAYDIPDDTRRVKLANLLKSYGERVQLSVFECYLDERLLEDLRRRARRLLDLGQDALRIYPVAGQVEVLGVGPLPELREVQVL”, the protein production result was “not failed”.

Consider “MGKRMLSMFHPFEIALCGLSGSGKTTLLEKLIRRFSTDGFEVAAFKHGCHRFDIDREGKDSDRFRRAGAVPVLIVDREKEALISSGTGRLDIAGLTLNADLLFIEGFKELPVPKVLLIDERREILPSLESGAIPEVLALAHDGDAEDMERFGLPLFHRDDVARISDFSAEFFRRAAQSVPLNGLVLAGGRSLRMGRDKAQLRYHEASQLDRTAALLGGVCNEVFISCRSDQLDQYSDARLPGIADSYLDLGPLGGLLSAQRHAPGAAWLVAACDLPFIDEAVIAALRAGRHPFRFGTAFAGSDGRPEPLLAIYEPKSRRRLLERHASGNDSLRAFLMNSRVQFIEPNDASKLRNVNDPAAMDDALRAISKGGQLEHHHHHH”, for which the protein production entry is listed as “failed”.

As for “MGKTLTGFHLKVIGVISMVFDHLLQFFSFLGVPGWFGWIGRIAAPIFLFESSEGFIHTSNRRKYMFRLLLGFWIMGILNGFLNAYFSTGGLIINNIFGTLFLGTVYMQSMDYFKQKQIGKGLLWFIVPLLISALPLVVFSSPDILSNPAILIGFQIFNLIVPSLMMTEGGFLFVLLAVAFYLFHGKKWLQISAIGVVALISAASYNFQELFGVNHQWMMILAAIPIVLYNGEKGRGMRNFFYIFYPAHIAIFAIISFFMQR”, the protein production result is “failed”.

As to “MGKTRAGRFALRGQRTALLHLETMTQAVDSADSVDPRALEALNRYFGYDSFRPGQSGIVSAILTGHDVLGVMPTGAGKSICYQIPAAILPGVAIVISPLISLMRDQVDALNDVGLPAAFINTTQTPDEQDLVFAQALSGQIKLLYVAPERLETERFRNFAVRVPISLVAVDEAHCVSQWGQDFRSSYLGIGEFIAGLPTRPTVAAFTATATERVRRDIVSILGLHTPSITVTGFDRPNLYFDVISMPRKDKASWVASYIASHPDESGIVYCATRKETEALAESLNSAVAELRAAGGADVSDIGTIAVAYHGGMSADAREKAQRDFVTDRVPVVVATNAFGMGIDKSNVRFVIHHNMPESIEAYYQEAGRAGRDGEPSRCTLLWNESDIVTRRRLLDSDYENERLTPEEQEAVRASKRRLLDAMVGYCRTTDCLHAYMTRYFGETAGAAAKTDGKCVGGCANCEHTFETIDVTDIARAISRCVHDVNQHVGSGKIVKVLRGSKAQDLSYLNPESLPSFGMLDEVPEARIRDVLSQMATDGFLTIAEGRLPIVGFGPRAAETVAPEFHYDIKKIKRADARARRTPDVSTPAVGSYVPDDGDEALFQKLRALRLDIARELGKPPYIVFSDKTLRDMVRVKPITDDQFLAVNGVGESKLKQYGERFLAAIREDSGDEA”, the protein production entry is recorded as “failed”.

In the case of “MGKVILVTGVSRGIGKSIVDVLFSLDKDTVVYGVARSEAPLKKLKEKYGDRFFYVVGDITEDSVLKQLVNAAVKGHGKIDSLVANAGVLEPVQNVNEIDVNAWKKLYDINFFSIVSLVGIALPELKKTNGNVVFVSSDACNMYFSSWGAYGSSKAALNHFAMTLANEERQVKAIAVAPGIVDTDMQVNIRENVGPSSMSAEQLKMFRGLKENNQLLDSSVPATVYAKLALHGIPDGVNGQYLSYNDPALADFMP”, the protein production result is recorded as “not failed”.

Take “MGKVSFGFLGLMLVVVVIGVVECRRFEKETLGGGGGGGLGGGFGGGKGFGGGIGAGGGFGGGAGGGAGGGLGGGAGGGGGIGGGAGGGAGGGLGGGAGGGLGGGHGGGIGGGAGGGAGGGLGGGHGGGIGGGAGGGSGGGLGGGIGGGAGGGAGGGGGLGGGHGGGIGGGAGGGAGGGLGGGHGGGIGGGAGGGSGGGLGGGIGGGAGGGAGGGGGAGGGGGLGGGHGGGFGGGAGGGLGGGAGGGTGGGFGGGAGGGAGGGAGGGFGGGAGGGAGGGFGGGAGGGAGGGAGGGFGGGAGGGHGGGVGGGFGGGSGGGFGGGAGGGAGGGAGGGFGGGGGAGGGFGGGF”: the protein production result is reported as “failed”.

In the case of “MGKYTSEHHKDSRIVQLFQDGQYFYHKGLKAYRERNLSRASKLIQRAIFLEPENTGMLSQLAVIYTEMGFYQQSNELLDFILKNINEKMTECYYFKANNYAHLGLFQEAYKAAETYLKEDPDGEFSEENAELLDLLDMGEEDQGYSQFDQDDLILKQDRAKSLLENGQLQESIAMLEEIISDYPEFWSAYNNLALAYFYAGDVQKAKTTVFTVLEKSHGNLHALCNLLIFYHYERRDDKVEALSEQLSNIYPMLFEQRYKLGATLALVGRYDLGFKWLKSLYRMGFEGDETFYYWLACSAYYTGRVQFARSVWKKMQEEYPDDARMEPWKERKEKRPVQRPLEERLAAYYISGRKGEKAQLKAVLDSQMAKTPFEDQFVRLVLYGESGAAVDSKDALLAYRTAKAIEQADQSAMEQEAMCFWIFHVIQQIRAYGLQLKNAGGLAAAIYYIWKTEHQERLTKAETAKIFQISPGTLSKYERTLKEHL”, the protein production entry was “failed”.

As to “MGLAASEALQGSEQEINSAFSNQITPVISGDYIVWQDERDGNWDIYMYDMSAGRTETSLFNGPKDEIEPAISGSRVVLADNRRGNYDIYMYDISTKKEVQVTSDKSEQKEPAISEDIIVWTDRRNQNTDIYMYDLTTKEETRITDDKADQSQPAVWGNIIVWKDTRNGNEDIYMYDISAGKESPVVMDSAAQTNPVIEGDYIVWEDRRAGNLDIYMYEISTGKEKPVCTDPSPQKTPAISDGRIVWADGRIKGTNIFIYDIATGQEKTVSTASEYESNPSIDGNRIVWQDKRKGAMDIFMFTEDASETESTAGEKTEAETGSKAPLGIYPVSAGVIAAYLMINSGKKGKRKTLEHHHHHH”, the protein production result is given as “failed”.

In the case of “MGLGIVLQGEKQVVIGDQILTYCAGQTMLTTIDVPVVSHTHNAKNHKPFLGLMLLLDLSMISKVVTQMEQLNIKEKVQPSFAVQPIDYVLIEAVQRLVTLLDEPILLSQLSPIIQQEIMIRLLAGVNGVYLRQLIRVGSVSERVAKVVNWLKQNFVETIRLDELADRFYMSSATLRQHFREVTGMSPLQYQKHLRLQQARHLLFNQNLEVGHTADLVGYESVSQFSREYARLFGATPLKDKQAAQLS”, the protein production entry was “failed”.

Consider “MGLIDRYLAREILLPFAAALLFLTQILLATQILGQADVLFGSGVSLVDVGLVMLSLMPHLLGYVIPVAFLLGVVLGVGRLAEDREVVALGAAGLSPVRLVRVPLLLGLVVAALGAWLSLSVEPASIRAARLRLNDVVKRNVTNDVRGGTFYDQIPGYTIYTERARGGRWENVLIQDRSNPDAPMLALSRRGRLEPVGAGQDMRLVLEQGEVHREEVGTADYASAAFGKAELLVGLGTALSDRNVLAKSSREATVSDLRARAAAAREKGDVVEERRQEGYLHRKLSAPLVVVAFALLGVPLGAERRGGRAFGMGATFLLVVVHYLLLRGGEVLTQLGHLPAAFALQLPNLVLGAAGVALVLLMARRGPEAVR”, for which the protein production result was “failed”.
